# Results: the DeepSol protein solubility set
# Assay: soluble on expression in E. coli; label from the status in PepcDB or PDB records
row,Sequence,soluble on expression in E. coli
1,MKVVRVCGGFGNQLFQYAFYLAVKHKFNETTKLDIHDMASYELHNGYELERIFNLNENYCSAEEKLAVQSTKNIFTKLLKEIKKYTPFIPRTYIKEKKHLHFSYQEVDLGTKDTSIYYRGSWQNPQYFNSIASEIREKLTFPEFTEPKSLALHQEISEHETVAVHIRRGDYLKHKALGGICDLPYYQNAIKEIEGLVEKPLFVIFSDDITWCRANINVEKVRFVDWNSGEQSFQDMHLMSLCTHNIIANSSFSWWGAWLNANPNKIVISPNKWIHYTDSMGIVPSEWIKVETSILEHHHHHH,not soluble
2,MKVWIKASALLTLAGLTACSASPTGRNQILMFSDQEMSSLGAKSFDQMKKDIPISKDKKTNAYVQCVAKQITNAIPPQAGFKDWEVVVFDSDQVNAFALPGGKIGVYTGLLKVAKNQDQLATVIGHEVAHVLAEHSNERLSQSQLANAGLSLANVAIGASEYKQYQQLTMAALGVGVQYGVILPYGRTQESEADIVGLEYMAKAGFNPNQSVDLWKNMSAASGGAQPPEFFSTHPSHSTRIKDLQATINKLPKYNVKAPKCGLEHHHHHH,not soluble
3,MKVYEFGKKENPAIMLLPGTCCHWKNNFSNVIDLLIEDFFVVCVSYDGFDETEKSEFQDMVTEVRKIENYINERFQGKIHAVYGCSLGG,not soluble
4,MKYIIIGLGNYGHVLAEELSTLGHEVIGADLDEGRVDSIKDKIATAFVIDATDEQSLSVLPLNSVDMVIVAIGENFGASIRVVAMLKQKQVKHIYARAIDGVHKAVLEAFGLEKILTPEEDAARSLVQLLDFGTKMETFRVDSEYYVVKFNVPEKFVGYFVNELNLDEEFNLKLIGLKRSNTIKNCLGISLVEHKVVNELPEDAKIRPDDVLVCYGKYSDFQKLWKALLEHHHHHH,soluble
5,MKYQVLLYYKYTTIEDPEAFAKEHLAFCKSLNLKGRILVATEGINGTLSGTVEETEKYMEAMQADERFKDTFFKIDPAEEMAFRKMFVRPRSELVALNLEEDVDPLETTGKYLEPAEFKEALLDEDTVVIDARNDYEYDLGHFRGAVRPDIRSFRELPQWIRENKEKFMDKKIVTYCTGGIRCEKFSGWLLKEGFEDVAQLHGGIANYGKNPETRGELWDGKMYVFDDRISVEINHVDKKVIGKDWFDGTPCERYINCANPECNRQILTSEENEHKHLGGCSLECSQHPANRYVKKHNLTEAEVAERLALLEAVEVLEHHHHHH,soluble
6,MLAAFISRVLRRVAQKSARRVLVASRNSSNDATFEIKKCDLYLLEEGPPVTTVLTRAEGLKYYRMMLTVRRMELKADQLYKQKFIRGFCHLCDGQEACCVGLEAGINPSDHVITSYRAHGVCYTRGLSVRSILAELTGRRGGCAKGKGGSMHMYTKNFYGGNGIVGAQGPLGAGIALACKYKGNDEICLTLYGDGAANQGQIAEAFNMAALWKLPCVFICENNLYGMGTSTERAAASPDYYKRGNFIPGLKVDGMDVLCVREATKFAANYCRSGKGPILMELQTYRYHGHSMSDPGVSYRTREEIQEVRSKRDPIIILQDRMVNSKLATVEELKEIGAEVRKEIDDAAQFATTDPEPHLEELGHHIYSSDSSFEVRGANPWIKFKSVS,soluble
7,MLAGLQKTTLVNFPRRVAAAVFLPGCNIRCPYCHNAELALASPSSFTANQESSNDYYELSEIYTFLERRKNLISGLVISGGEPFMSPALFELIERAKSLNLAVKIDTNGLFPERIEEVLRSSNLQPDMIAIDVKTSPERYGELLASKTDSAAKKAKTALLKTLDILKSNTEKTEVEYRTVLAPPLVSEDEIKKIASLLPKNARWRLAQFVPGTCLNPEWNSVEPYPLSQAQALTAIAKSLIPDTELR,not soluble
8,MLARSARLLHSAELAANAIRAASGAPATAAAAEASFPSTDDVAAKTKKTGNRIKTFEIYRFNPEAPGAKPTVQKFDVDLDQCGTMILDALIKIKNEVDPTLTFRRSCREGICGSCAMNIGGQNTLACICKIDSDTSKSTKIYPLPHMFVVKDLVPDMNLFYAQYASIQPWIQKKTPLTLGEKQMHQSVAERDRLDGLYECILCACCSTSCPSYWWNADKYLGPAVLMQAYRWVIDSRDDYATERLHRMHDSFSAFKCHTIMNCTKTCPKHLNPAKAIGEIKSLLTGFTSKPAAEPSAF,not soluble
9,MLCSRYFTSSLFLWGEALPTLLEEFLNEVEKMLKNQVNTRRIHQLLKELDDPLLENKDLEEKLQAFLDYVKEIPNLPEARKRYRIQKSLEMIEKLRSWFLIDYLECSGEEVDLSTDIQYAKGVGPNRKKKLKKLGIETLRDLLEFFPRDYEDRRKIFKLNDLLPGEKVTTQGKIVSVETKKFQNMNILTAVLSDGLVHVPLKWFNQDYLQTYLKQLTGKEVFVTGTVKSNAYTGQYEIHNAEVTPKEGEYVRRILPIYRLTSGISQKQMRKIFEENIPSLCCSLKETLPERILEKRKLLGVKDAYYGMHFPKTFYHLEKARERLAYEELFVLQLAFQKIRKEREKHGGIPKKIEGKLAEEFIKSLPFKLTNAQKRAHQEIRNDMISEKPMNRLLQGDVGSGKTVVAQLAILDNYEAGFQTAFMVPTSILAIQHYRRTVESFSKFNIHVALLIGATTPSEKEKIKSGLRNGQIDVVIGTHALIQEDVHFKNLGLVIIDEQHRFGVKQREALMNKGKMVDTLVMSATPIPRSMALAFYGDLDVTVIDEMPPGRKEVQTMLVPMDRVNEVYEFVRQEVMRGGQAFIVYPLIEESDKLNVKSAVEMYEYLSKEVFPEFKLGLMHGRLSQEEKDRVMLEFAEGRYDILVSTTVIEVGIDVPRANVMVIENPERFGLAQLHQLRGRVGRGGQEAYCFLVVGDVGEEAMERLRFFTLNTDGFKIAEYDLKTRGPGEFFGVKQHGLSGFKVADLYRDLKLLEWAREDVQEIDVEGIELPEEIKLIEVG,soluble
10,MLDGLTYAYGDLIEKVPDFEIIQRKSPKSGKVALVSGGGSGHKPAHAGFVGEGMLSAAVCGAIFTSPTPDQIYEAIKSADEGAGVLLIIKNYLGDVMNFEMAREMAEMEEIKVEQIIVDDDIAVENSLYTQGRRGVAGTVLVHKILGAAAHQEASLDEIKDLADKVVKNIKTIGLALSAATVPEVGKPGFVLDDNEIEYGVGIHSEPGYRREKMKTSYELATELVGKLKEEFKFEAGQKYGILVNGMGATPLMEQFIFMNDVAKLLTEENIEILFKKVGNYMTSIDMAGLSLTMIKLEDDQWLKNLNEDVKTISWGLEHHHHHH,not soluble
11,MLDIVLYEPEIPQNTGNIIRLCANTGFRLHLIEPLGFTWDDKRLRRSGLDYHEFAEIKRHKTFEAFLESEKPKRLFALTTKGCPAHSQVKFKLGDYLMFGPETRGIPMSILNEMPMEQKIRIPMTANSRSMNLSNSVAVTVYEAWRQLGYKGAVNLPEVKLEHHHHHH,soluble
12,MLDVHPSGFYAWLQQPHSQRHQADLRLTGQIKQFWLESGCVYGYRKIHLDLRDSGQQCGVNRVWRLMKRVGIKAQVGYRSPRARKGEASIVSPNRLQRQFNPDAPDERWVTDITYIRTHEGWLYLAVVVDLFSRKIIGWSMQSRMTKDIVLNALLMAVWRRNPEKQVLVHSDQGSQYTSHEWQSFLKSHGLEG,not soluble
13,MLDYFFNPKGIAVIGASNDPKKLGYEVFKNLKEYKKGKVYPVNIKEEEVQGVKAYKSVKDIPDEIDLAIIVVPKRFVKDTLIQCGEKGVKGVVIITAGFGETGEEGKREEKELVEIAHKYGMRIIGPNCVGIMNTHVDLNATFITVAKKGNVAFISQSGALGAGIVYKTIKEDIGFSKFISVGNMADVDFAELMEYLADTEEDKAIALYIEGVRNGKKFMEVAKRVTKKKPIIALKAGKSESGARAASSHTGSLAGSWKIYEAAFKQSGVLVANTIDEMLSMARAFSQPLPRGNKVAIMTNAGGPGVLTADELDKRGLKLATLEEKTIEELRSFLPPMAAVKNPVDMIASARGEDYYRTAKLLLQDPNVDMLIAICVVPTFAGMTLTEHAEGIIRAVKEVNNEKPVLAMFMAGYVSEKAKELLEKNGIPTYERPEDVASAAYALVEQAKNVGILEVE,soluble
14,MLEARDLYCERDERTLFRGLSFTVDAGEWVQVTGGNGAGKTTLLRLLTGLARPDGGEVYWQGEPLRRVRDSFHRSLLWIGHQPGIKTRLTARENLHFFHPGDGARLPEALAQAGLAGFEDVPVAQLSAGQQRRVALARLWLTRAALWVLDEPFTAIDVNGVARLTRRMAAHTAQGGMVILTTHQPLPGAADTVRRLALTGGGAGL,not soluble
15,MLEHGGRLREAARRYDIPLADWLDLSTGIAPWPFSLPAIPEQAWTRLPESDDGLEAAACLYYGAERVLPLAGSQAAIQALPRMRRGGRVGVLSPCYAEHAHAWRQAGHLVREIGEAEVEPYLDSLDVLLVVNPNNPTGRVFEPAELLAWHARLQRRGGWLLVDEAFMDCTPQSSLAACSNRPGLIVLRSFGKFFGLAGARLGFALGERPLLQALAEQLGPWTVNGPVRHVAQSALRDRQQQRQQRERLLAASQRLEELLRRHGWPPAGGSALFQRLVDPRCAALHDYLARRGILTRQFEQPASLRLGLPADEAAWARLDAALLGFKEPAHE,not soluble
16,MLEKLWPFGRSRVRKAVEEALEKAFQDVGEVLEPLSELSEHEDHYLLRVEVPGLGPENLEVRLEGDQLVIEGEKREEKRAKHLAEIVYGRIYRAYLLPKDAKKEGIEARLAKGVLEVRIPREKRPEEPPVRIPIQES,soluble
17,MLERHDRLETLRKLKELQERIAELAYLLTGEEPAAWTPRVDLLETEEHYVLLVDLPGVRPEDLELLEEGQRVTLAGVRHPLPGTYLLEERPMGTFRRTLDLPGPIEEGTAQATLRNGVLEVRFRKRPATALPLKEA,soluble
18,MLESVHQASAYTADVQPADVVIVGAGAAGLAAAHHLTRAGLTTAVLEAAPNVGGRMSTEKVDGFRLDRMGQLLSTAYPELRSTPGLDALPLREFSPGVLVHSDGHLHRVGEPGTPRSARGALTAARALASAPRQQRTPRAPRTQGASRPGLLGSPVGQSRLAGALARLAATPPDRLLSRPELPAARALSALGLPPRTIDGFLRPLLAALLCDPALETSSRCADLALRAFVTGRLCVPEGGADVLPELLAATLPPGTVHTGVRVTAVSTTSVTTKDHGELRCRAVLLATGARAAARLLPGLRVPGFHPVTVLHHTTDEPPLGDPALVLDAERGGPVAHTAVISRVDPSRAPAGRALVSSTVLGTPPPPDRLEAAVRAQLARLYRTSTARWELLAIHHDSEAVPAMPPPHDPRRPVRLLAGLYICGDHRDTSTVQGALRSGRRAAHALLTDVGAGQTSLEEPLETAALEHHHHHH,not soluble
19,MLEVREVEKSFKKKKVLKGGSLSVNKGEIVGLLGPNGAGKTTLFNSIIGFISVDKGKVLLDGEDVTHLPPFKRAQKGLAFLPQEHTLFEDLTVLENLLIFLEFFTDSKEEAITKAEALLEDFGLLELKDQKAYALSGGQKRRLEIARSLITTPKYVLLDEPFAGLDPIIVSEIREIVKNLKNNGIGVLITDHNVRETIKMVDRVYIISEGKVLAHGKPEEVVNNEAVRKTYLGVDFKL,soluble
20,MLFDTHAHLNAVQYEEDLEQVIERARDEGVSHIVVVGFDRPTIDRAIELAERYPFIYAAVGWHPVDAIEMTDDDLQMIEQLAAHPKVVALGEMGLDYHWDKSPKDVQQEVFRQQIRLAKKVKLPIIIHNREATADILKILQEENAAEVGGIMHCFSGSVEVAKQCMDMNFLISLGGPVTFKNAKKPKEVAKEIPLSHLLIETDCPYLTPHPFRGKRNEPSYVKYVAEAIAQIKNISFAEVAETTAENAKKLFAIDR,not soluble
21,MLFKRPDTETLYFALVNKDPAYEGVAYVCVTSTKIFCRFTCTARKPKIENCRFRETITECLEAGFRPCKRCKPMLSYGTPDGTVTALLTALENEPARRWREEDVVALGHDPSTVRRSFKRRFGMSFLEIARLRRVGDAAESLASGEAVIGAQIDAGYESGSGFRSAINQLFGTSPAAMKGRGFLKGDWIDTPIGPMLAVADDHALHLLEFADRPALPAELKRLKARTGADMVLGRTAVTGQIAAELAAYFAGRSGSFETRLAGHGTPFERDVWRNLREIPAGEIVSYSSLATAMERPTAVRAVARANGANQLAIVVPCHRVLGADGSLTGYGGGLWRKKWLIEHERRMARGLEHHHHHH,soluble
